According to the supplement of paper PMC7877785:
± gives the uncertainty stated by the source.

Assay: self-splicing fitness, log relative to wild type (ln ratio); higher = more splicing; Tetrahymena group I intron in knt gene, E. coli kanamycin selection, DiMSum; sequences stand for … in CUCUCU…GGAGGGAAAAGUUAUCAGGCAUGCACCUGGUAGCUAGUCUUUAAACCAAUAGAUUGCAUCGGUUUAAAAGGCAAGACCGUCAAAUUGCGGGAAAGGGGUCAACAGCCGUUCAGUACCAAGUCUCAGGGGAAACUUUGAGAUGGCCUUGCAAAGGGUAUGGUAAUAAGCUGACGGACAUGGUCCUAACCACGCAGCCAAGUCCUAAGUCAACAGAUCUUCUGUUGAUAUGGAUGCAGUUCACAGACUAAAUGUCGGUCGGGGAAGAUGUAUUCUUCUCAUAAGAUAUAGUCGGACCUCUCCUUAAUGGGAGCUAGCGGAUGAAGUGAUGCAACACUGGAGCCGCUGGGAACUAAUUUGUAUGCGAAAGUAUAUUGAUUAGUUUUGGAGUACUCGUGGUCG
How it was run: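 A randomised library covering all eight P1ex-region intron nucleotides was built with the intron in the knt kanamycin-resistance gene on pET-22b(+) and held in E. coli BL21(DE3). Cells were grown overnight at 37°C or 30°C on LB agar, with or without 25 μg/mL kanamycin, plus 100 μg/mL carbenicillin, 50 μM IPTG and 0.2% rhamnose, and pooled colonies were amplicon-sequenced on an Illumina HiSeq 2500. DiMSum fitness is the error-weighted combination of wild-type-normalised replicate fold changes, kanamycin versus none.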

| Sequence | self-splicing fitness (ln) (30 °C) | self-splicing fitness (ln) (37 °C) |
| --- | --- | --- |
| CGCAAGCAAUAUUACGAAUU | -2.55 ± 0.2 | -3.57 ± 0.46 |
| CUGUAGCAAUAUUACGAACA | -2 ± 0.41 |  |
| GAUAAGCAAUAUUACGCUGA |  | -1.31 ± 0.22 |
| GACCAGCAAUAUUACGUAGC | -0.693 ± 0.069 | -0.496 ± 0.082 |
| GUCUAGCAAUAUUACGAGGU |  | -1.99 ± 0.4 |
| CAAAAGCAAUAUUACGGGGU | -4.06 ± 0.2 | -2.7 ± 0.18 |
| AGACAGCAAUAUUACGACGU | 0.00817 ± 0.047 | -0.185 ± 0.051 |
| CGUGAGCAAUAUUACGCCUC | -2.12 ± 0.31 | -1.07 ± 0.4 |
| ACGUAGCAAUAUUACGCUCA | -0.72 ± 0.12 | 0.189 ± 0.11 |
| GUUAAGCAAUAUUACGGGCC |  | -2.12 ± 0.37 |
| UGUAAGCAAUAUUACGACGG | -1.46 ± 0.11 | -0.11 ± 0.12 |
| UUAUAGCAAUAUUACGGCAG | -0.689 ± 0.094 | -0.0118 ± 0.13 |
| UAGCAGCAAUAUUACGAGAG | -2.8 ± 0.2 | -3.15 ± 0.29 |
| AUAGAGCAAUAUUACGGUCA | -1.48 ± 0.14 | -0.634 ± 0.21 |
| AUGCAGCAAUAUUACGGUGG | -3.96 ± 0.18 | -1.86 ± 0.12 |
| CUUCAGCAAUAUUACGGAGG | -3.09 ± 0.21 | -2.09 ± 0.26 |
| UGUUAGCAAUAUUACGAUCG | -0.427 ± 0.26 | -0.0339 ± 0.28 |
| UCUAAGCAAUAUUACGGACA | -2.39 ± 0.18 | -1.18 ± 0.17 |
| GUGAAGCAAUAUUACGUCGC | -2.77 ± 0.25 | -1.75 ± 0.18 |
| UCUAAGCAAUAUUACGUAGU | -0.857 ± 0.05 | -0.481 ± 0.069 |
| AACAAGCAAUAUUACGAGCC | -3.25 ± 0.47 | -2.09 ± 0.36 |
| UAUCAGCAAUAUUACGCGUU | -1.7 ± 0.13 | -1 ± 0.17 |
| GCGCAGCAAUAUUACGUGUU | -1.06 ± 0.075 | -0.857 ± 0.092 |
| CAAUAGCAAUAUUACGUCAA | -3.04 ± 0.22 | -2.01 ± 0.28 |
| AUUGAGCAAUAUUACGCGCC | -1.62 ± 0.48 |  |

| Sequence | self-splicing fitness (ln) (30 °C) | self-splicing fitness (ln) (37 °C) |
| --- | --- | --- |
| UGUUAGCAAUAUUACGCUGU | -2.07 ± 0.23 | -0.914 ± 0.2 |
| GUAAAGCAAUAUUACGUAAA | -2.08 ± 0.1 | -0.853 ± 0.11 |
| UGGCAGCAAUAUUACGCACG | -1.22 ± 0.18 | 0.284 ± 0.19 |
| UGCCAGCAAUAUUACGUGGU | -3.85 ± 0.21 | -2.83 ± 0.19 |
| AUCGAGCAAUAUUACGUGCU | -2.72 ± 0.2 | -2 ± 0.27 |
| AAUAAGCAAUAUUACGAAUA | -1.54 ± 0.13 | -1.62 ± 0.15 |
| GGGUAGCAAUAUUACGGCAA | -0.369 ± 0.24 | -0.33 ± 0.28 |
| CCUCAGCAAUAUUACGCAAA |  | -2.46 ± 0.3 |
| AAUGAGCAAUAUUACGUGUC | -3.39 ± 0.25 | -3.65 ± 0.39 |
| GACAAGCAAUAUUACGAGUU | -3.7 ± 0.15 | -2.3 ± 0.16 |
| GUGCAGCAAUAUUACGUCGA | -1.22 ± 0.096 | -0.927 ± 0.1 |
| UCUAAGCAAUAUUACGUCGU | -1.19 ± 0.1 | -0.695 ± 0.12 |
| CUGAAGCAAUAUUACGACUA | -1.29 ± 0.16 | -0.875 ± 0.21 |
| AACUAGCAAUAUUACGCCCC | 0.0551 ± 0.17 | -0.32 ± 0.18 |
| CCGUAGCAAUAUUACGGUGG | -2.59 ± 0.16 | -1.1 ± 0.17 |
| CUCAAGCAAUAUUACGUCUU | -3.42 ± 0.21 | -2.06 ± 0.16 |
| CCACAGCAAUAUUACGACGC | -3.76 ± 0.33 | -2.08 ± 0.35 |
| CACUAGCAAUAUUACGUAAU | -3.08 ± 0.22 | -2.54 ± 0.2 |
| UAUGAGCAAUAUUACGAGUU | -3.21 ± 0.17 | -2.57 ± 0.24 |
| AUCCAGCAAUAUUACGUAUC | -3.8 ± 0.27 | -2.26 ± 0.2 |
| ACCAAGCAAUAUUACGUAUC | -3.4 ± 0.1 | -2.34 ± 0.11 |
| GUGUAGCAAUAUUACGUCGU | -1.67 ± 0.15 | -1.1 ± 0.16 |
| AUAUAGCAAUAUUACGGCGG | -1.04 ± 0.17 | -0.534 ± 0.26 |
| AUGGAGCAAUAUUACGGUUG | -4.12 ± 0.3 | -2.21 ± 0.23 |
| CCCGAGCAAUAUUACGCUAG | -3.59 ± 0.37 | -1.73 ± 0.36 |

| Sequence | self-splicing fitness (ln) (30 °C) | self-splicing fitness (ln) (37 °C) |
| --- | --- | --- |
| CGGAAGCAAUAUUACGGCCU | 0.133 ± 0.15 | 0.152 ± 0.16 |
| GCAGAGCAAUAUUACGGGAU | -3.53 ± 0.2 | -2.21 ± 0.19 |
| GUCCAGCAAUAUUACGUUAC | -1.55 ± 0.089 | -0.179 ± 0.1 |
| GCGGAGCAAUAUUACGUAUU | -3.85 ± 0.25 | -2.48 ± 0.41 |
| CCGUAGCAAUAUUACGGUGA | -3.66 ± 0.26 | -2.45 ± 0.25 |
| GCAAAGCAAUAUUACGAGGA | -2.49 ± 0.13 | -1.83 ± 0.14 |
| UUGGAGCAAUAUUACGCUUG | -2.69 ± 0.3 | -1.25 ± 0.27 |
| GUUUAGCAAUAUUACGACUC | 0.0633 ± 0.12 | 0.248 ± 0.15 |
| CGAAAGCAAUAUUACGAACA | -1.92 ± 0.13 | -0.112 ± 0.12 |
| GGUGAGCAAUAUUACGCACU | -3.35 ± 0.44 | -2.9 ± 0.43 |
| CAUAAGCAAUAUUACGGCCA | -2.38 ± 0.26 | -2.62 ± 0.29 |
| UAUUAGCAAUAUUACGCCUA | -0.107 ± 0.15 | -0.038 ± 0.14 |
| CUAGAGCAAUAUUACGGCUC | -2.94 ± 0.25 |  |
| CUGUAGCAAUAUUACGUGAU | -1.56 ± 0.085 | -0.44 ± 0.11 |
| GAAUAGCAAUAUUACGCGAG | -1.19 ± 0.087 | -0.803 ± 0.096 |
| GUUCAGCAAUAUUACGCCCA | -0.553 ± 0.1 | -1.26 ± 0.1 |
| UGAAAGCAAUAUUACGAUUG | -0.872 ± 0.11 | -0.573 ± 0.14 |
| AUUUAGCAAUAUUACGUCCU | -0.237 ± 0.16 | 0.18 ± 0.23 |
| AGUCAGCAAUAUUACGAUAG | -1.12 ± 0.14 | -2.32 ± 0.23 |
| AAUUAGCAAUAUUACGCACG | -2.18 ± 0.2 | -0.641 ± 0.17 |
| UUGCAGCAAUAUUACGACGA | 0.0944 ± 0.089 | 0.407 ± 0.12 |
| AAAGAGCAAUAUUACGCAUA | -2.55 ± 0.23 | -1.42 ± 0.22 |
| UAAAAGCAAUAUUACGUUGG | -2.36 ± 0.1 | -1.42 ± 0.12 |
| AAUCAGCAAUAUUACGAACA | -0.526 ± 0.12 | -0.161 ± 0.13 |
| CCCUAGCAAUAUUACGCGGG | -3.75 ± 0.23 | -1.92 ± 0.2 |

| Sequence | self-splicing fitness (ln) (30 °C) | self-splicing fitness (ln) (37 °C) |
| --- | --- | --- |
| UUAAAGCAAUAUUACGAUAC | -1.57 ± 0.13 | -0.384 ± 0.16 |
| GCAAAGCAAUAUUACGCGCA | -0.918 ± 0.096 | -0.0967 ± 0.092 |
| CCCAAGCAAUAUUACGAUGC | -4.67 ± 0.29 | -2.15 ± 0.24 |
| UCGCAGCAAUAUUACGUACU |  | -1.86 ± 0.32 |
| AAUUAGCAAUAUUACGUGUG | -2.11 ± 0.11 | -0.784 ± 0.096 |
| CAUUAGCAAUAUUACGGCCA | -2.3 ± 0.28 |  |
| AUCUAGCAAUAUUACGUGAC | -3.35 ± 0.26 | -1.14 ± 0.2 |
| UCGUAGCAAUAUUACGAUCA | -0.922 ± 0.19 | -0.511 ± 0.17 |
| AGCUAGCAAUAUUACGCUAC | -2.68 ± 0.48 | -2.77 ± 0.38 |
| AAAAAGCAAUAUUACGGUUA | 0.0411 ± 0.067 | -0.012 ± 0.079 |
| CACAAGCAAUAUUACGAGUA | -1.9 ± 0.085 | -0.487 ± 0.078 |
| GUCCAGCAAUAUUACGAUAU | -0.337 ± 0.056 | 0.114 ± 0.065 |
| AAGUAGCAAUAUUACGGGAA | -2.74 ± 0.2 | -2.8 ± 0.23 |
| GAGAAGCAAUAUUACGUGAA | -1 ± 0.1 | -1.23 ± 0.17 |
| GCCUAGCAAUAUUACGUUGA | -1.54 ± 0.11 | -0.577 ± 0.1 |
| AUCUAGCAAUAUUACGUAUA | -2.84 ± 0.33 | -1.91 ± 0.3 |
| GAGGAGCAAUAUUACGGAUG | -3.77 ± 0.27 | -2.48 ± 0.24 |
| UUUCAGCAAUAUUACGACUG | -2.89 ± 0.2 | -1.53 ± 0.18 |
| UGUCAGCAAUAUUACGAGAA | -1.43 ± 0.27 | -1.48 ± 0.22 |
| AAUAAGCAAUAUUACGAAGU | -3.44 ± 0.18 | -1.94 ± 0.17 |
| UGGUAGCAAUAUUACGUCCG | -0.727 ± 0.15 | -0.449 ± 0.24 |
| CCCCAGCAAUAUUACGGUAG | -2 ± 0.065 | -1.31 ± 0.097 |
| AUAAAGCAAUAUUACGUUUU | -2.37 ± 0.097 | -1.11 ± 0.12 |
